As usually defined, the EC50 is the concentration that produces a half-maximal response. For orientation: koff means a measure of how fast the partners let go of each other. What is called kon is the rate constant with which the complex forms. The term Kd denotes the equilibrium constant for the complex coming apart.

Experiment [1] addresses T1, B7-H3 (NCBI Reference Sequence: NP_001019907.1) on CHO-K1-B7-H3 cells (human, UniProt Q5ZPR3 29-534).
T1 sequence: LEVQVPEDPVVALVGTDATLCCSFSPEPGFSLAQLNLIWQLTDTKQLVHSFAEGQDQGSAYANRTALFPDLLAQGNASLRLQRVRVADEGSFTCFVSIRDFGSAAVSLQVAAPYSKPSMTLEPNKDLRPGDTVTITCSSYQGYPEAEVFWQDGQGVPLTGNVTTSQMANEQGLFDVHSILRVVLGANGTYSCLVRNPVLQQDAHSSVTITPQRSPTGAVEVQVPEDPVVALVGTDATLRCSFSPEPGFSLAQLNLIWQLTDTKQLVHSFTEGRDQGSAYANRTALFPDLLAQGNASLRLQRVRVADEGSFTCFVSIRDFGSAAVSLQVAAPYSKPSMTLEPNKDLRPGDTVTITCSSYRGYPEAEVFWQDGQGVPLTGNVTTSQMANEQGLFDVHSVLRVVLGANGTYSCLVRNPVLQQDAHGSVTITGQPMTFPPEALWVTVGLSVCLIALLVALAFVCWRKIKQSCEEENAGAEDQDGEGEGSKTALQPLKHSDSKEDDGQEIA
In words: cell-based or functional assay.

The target in experiment [2] is T2, B7-H3 on Calu-6 cells (UniProt Q5ZPR3 29-534, limits assumed).
T2 sequence (looked up): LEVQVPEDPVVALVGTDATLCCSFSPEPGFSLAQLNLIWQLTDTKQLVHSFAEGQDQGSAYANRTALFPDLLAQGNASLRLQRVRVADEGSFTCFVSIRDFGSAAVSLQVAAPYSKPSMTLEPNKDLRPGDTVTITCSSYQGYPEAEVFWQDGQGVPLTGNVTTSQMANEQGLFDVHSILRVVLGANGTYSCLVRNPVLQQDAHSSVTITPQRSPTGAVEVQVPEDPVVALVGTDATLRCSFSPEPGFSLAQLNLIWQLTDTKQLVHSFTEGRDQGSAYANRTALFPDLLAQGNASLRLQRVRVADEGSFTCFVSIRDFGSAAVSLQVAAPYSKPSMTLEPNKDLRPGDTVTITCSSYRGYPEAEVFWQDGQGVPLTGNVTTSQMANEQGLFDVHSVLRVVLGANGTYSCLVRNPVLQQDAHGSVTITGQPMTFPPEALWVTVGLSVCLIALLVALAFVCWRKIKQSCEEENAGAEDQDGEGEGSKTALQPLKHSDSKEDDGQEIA
In words: cell-based or functional assay.

Experiment [3] deals with T3, Lag3 (NCBI Reference Sequence: NP_002277.4) on Lag3-CHO cells (UniProt P18627 23-525, limits assumed).
T3 construct: whole, on cells
T3 sequence (looked up): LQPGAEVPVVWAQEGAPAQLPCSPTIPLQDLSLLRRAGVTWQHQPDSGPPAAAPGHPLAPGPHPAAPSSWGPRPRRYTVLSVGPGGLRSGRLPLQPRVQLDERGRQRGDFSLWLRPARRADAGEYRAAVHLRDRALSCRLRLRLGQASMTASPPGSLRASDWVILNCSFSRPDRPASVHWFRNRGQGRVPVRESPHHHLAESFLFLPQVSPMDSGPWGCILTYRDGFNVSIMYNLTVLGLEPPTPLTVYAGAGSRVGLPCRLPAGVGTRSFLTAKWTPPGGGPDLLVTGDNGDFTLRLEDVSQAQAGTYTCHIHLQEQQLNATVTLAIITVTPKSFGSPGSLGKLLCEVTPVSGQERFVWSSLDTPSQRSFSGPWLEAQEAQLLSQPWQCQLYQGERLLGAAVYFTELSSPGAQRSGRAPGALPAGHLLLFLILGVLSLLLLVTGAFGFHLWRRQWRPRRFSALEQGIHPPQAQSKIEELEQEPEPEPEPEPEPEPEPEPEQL
In words: flow cytometry on Lag3-CHO cells.

The target in experiment [4] is T4, Tim3 (NCBI Reference Sequence: NP_116171.3) on Tim3-CHO cells (UniProt Q8TDQ0 22-301, limits assumed).
T4 construct: whole, on cells
In words: flow cytometry on Tim3-CHO cells. A general note: A flow cytometer gives signals particle by particle.

Experiment [5] addresses T5, VISTA (NCBI Reference Sequence: NP_071436.1) on VISTA-CHO cells (UniProt Q9H7M9 33-311, limits assumed).
T5 construct: whole, on cells
In words: flow cytometry on VISTA-CHO cells.

In experiment [6] the target is T6, B7-H3 on MDA-MB-468 cells (human, UniProt Q5ZPR3).
T6 construct: endogenous, on the cell surface
T6 sequence (cell surface antigen, looked up): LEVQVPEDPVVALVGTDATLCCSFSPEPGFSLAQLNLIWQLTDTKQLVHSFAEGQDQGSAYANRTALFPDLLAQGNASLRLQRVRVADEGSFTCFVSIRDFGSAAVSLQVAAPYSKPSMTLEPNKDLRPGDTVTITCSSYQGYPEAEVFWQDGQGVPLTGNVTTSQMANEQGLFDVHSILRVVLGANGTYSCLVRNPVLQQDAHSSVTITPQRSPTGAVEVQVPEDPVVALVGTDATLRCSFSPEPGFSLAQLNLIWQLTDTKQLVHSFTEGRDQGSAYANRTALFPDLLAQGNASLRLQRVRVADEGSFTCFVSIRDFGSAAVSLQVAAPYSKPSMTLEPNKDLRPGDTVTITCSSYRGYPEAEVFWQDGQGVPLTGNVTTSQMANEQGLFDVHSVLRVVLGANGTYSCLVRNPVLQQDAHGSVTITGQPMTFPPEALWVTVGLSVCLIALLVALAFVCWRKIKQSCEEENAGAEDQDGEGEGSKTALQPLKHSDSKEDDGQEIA
In words: flow cytometry on MDA-MB-468 cells; blank V2-R 0.9%.

Experiment [7] addresses T7, antigen hB7-H3-His (human, UniProt Q5ZPR3 29-461).
T7 construct: residues 1-28 are left out on that ground
T7 sequence: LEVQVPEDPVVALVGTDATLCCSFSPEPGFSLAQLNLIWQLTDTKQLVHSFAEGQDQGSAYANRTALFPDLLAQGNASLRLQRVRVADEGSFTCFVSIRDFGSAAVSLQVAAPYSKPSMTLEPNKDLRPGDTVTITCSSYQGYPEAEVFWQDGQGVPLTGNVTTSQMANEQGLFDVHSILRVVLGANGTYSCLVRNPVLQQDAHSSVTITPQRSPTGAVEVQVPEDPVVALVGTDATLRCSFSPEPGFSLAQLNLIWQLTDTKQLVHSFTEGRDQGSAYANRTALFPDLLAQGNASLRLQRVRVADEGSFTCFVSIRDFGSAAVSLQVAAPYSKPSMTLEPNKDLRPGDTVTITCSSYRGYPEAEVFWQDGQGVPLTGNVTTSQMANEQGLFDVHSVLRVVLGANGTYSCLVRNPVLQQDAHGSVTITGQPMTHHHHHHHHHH
In words: ELISA, antigen coated at 2 µg/mL, anti-human kappa light chain HRP detection. A general note: An ELISA detects its analyte on a solid surface through an enzyme-linked reagent.

In experiment [8] the target is T8, cynomolgus monkey B7-H3 (novoprotein CA61) (cynomolgus monkey).
T8 construct: Bought protein
The experiment is described as above.

The target in experiment [9] is T9, mouse B7-H3 (SinoBiological, 50973-M08H) (mouse, UniProt Q8VE98 29-244).
T9 construct: Bought protein
T9 sequence (looked up): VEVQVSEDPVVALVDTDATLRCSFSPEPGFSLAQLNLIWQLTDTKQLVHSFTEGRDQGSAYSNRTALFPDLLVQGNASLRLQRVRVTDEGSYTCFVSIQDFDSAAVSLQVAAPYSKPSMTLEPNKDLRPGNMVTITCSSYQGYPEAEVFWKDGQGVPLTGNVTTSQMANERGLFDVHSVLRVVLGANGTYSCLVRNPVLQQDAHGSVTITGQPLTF
In words: ELISA, antigen coated at 2 µg/mL, Antibody V3 in 2-fold dilutions (EC50 cell in Table 12: NA).

The target in experiment [10] is T7, antigen hB7-H3-His. In words: SPR, BiaCore T200, ADC or antibody captured on Protein A chip, hB7-H3-His as analyte, 1:1 model. For orientation: SPR reads the build-up and loss of mass on a sensor chip optically.
Experiment [11] has as its target T3, Lag3 (NCBI Reference Sequence: …). In words: flow cytometry on Lag3-CHO cells; blank P3 0.5%; the filing says V1-V5 did not bind.
Experiment [12] addresses T4, Tim3 (NCBI Reference Sequence: …). In words: flow cytometry on Tim3-CHO cells; blank P3 0.2%; the filing says V1-V5 did not bind.
Experiment [13] concerns the target T5, VISTA (NCBI Reference Sequence: …). In words: flow cytometry on VISTA-CHO cells; blank P3 0.1%; the filing says V1-V5 did not bind.
Experiment [14] deals with T7, antigen hB7-H3-His. In words: SPR, BiaCore T200, ADC or antibody captured on Protein A chip, hB7-H3-His as analyte, 1:1 model; naked Antibody V3, not conjugated.
Experiment [15] concerns the target T10, hB7-H3-Fc.
T10 construct: also called antigen hB7-H3-Fc
In words: ELISA on coated hB7-H3-Fc (2 ug/mL), HRP anti-human kappa secondary, A450, antibody from 300 nM in 3-fold dilutions; axis 'Concentration' has no unit, nM from p-1066.

Experiment [16] has as its target T3, Lag3 (NCBI Reference Sequence: …). In words: flow cytometry on Lag3-CHO cells, PE anti-human IgG Fc secondary.
Experiment [17] addresses T4, Tim3 (NCBI Reference Sequence: …). In words: flow cytometry on Tim3-CHO cells, PE anti-human IgG Fc secondary.
The target of experiment [18] is T5, VISTA (NCBI Reference Sequence: …). In words: flow cytometry on VISTA-CHO cells, PE anti-human IgG Fc secondary.
The target of experiment [19] is T7, antigen hB7-H3-His. In words: SPR, BiaCore T200, antibody captured on Protein A chip, hB7-H3-His as analyte, 1:1 model.
In experiment [20] the target is T6, B7-H3 on MDA-MB-468 cells. In words: flow cytometry on MDA-MB-468 cells, PE anti-human IgG Fc secondary, antibody from 100 nM in 3-fold dilutions; axis 'Concentration' has no unit, nM from p-1056.

T10 sequence (fusion chain, as listed by the source limits assumed): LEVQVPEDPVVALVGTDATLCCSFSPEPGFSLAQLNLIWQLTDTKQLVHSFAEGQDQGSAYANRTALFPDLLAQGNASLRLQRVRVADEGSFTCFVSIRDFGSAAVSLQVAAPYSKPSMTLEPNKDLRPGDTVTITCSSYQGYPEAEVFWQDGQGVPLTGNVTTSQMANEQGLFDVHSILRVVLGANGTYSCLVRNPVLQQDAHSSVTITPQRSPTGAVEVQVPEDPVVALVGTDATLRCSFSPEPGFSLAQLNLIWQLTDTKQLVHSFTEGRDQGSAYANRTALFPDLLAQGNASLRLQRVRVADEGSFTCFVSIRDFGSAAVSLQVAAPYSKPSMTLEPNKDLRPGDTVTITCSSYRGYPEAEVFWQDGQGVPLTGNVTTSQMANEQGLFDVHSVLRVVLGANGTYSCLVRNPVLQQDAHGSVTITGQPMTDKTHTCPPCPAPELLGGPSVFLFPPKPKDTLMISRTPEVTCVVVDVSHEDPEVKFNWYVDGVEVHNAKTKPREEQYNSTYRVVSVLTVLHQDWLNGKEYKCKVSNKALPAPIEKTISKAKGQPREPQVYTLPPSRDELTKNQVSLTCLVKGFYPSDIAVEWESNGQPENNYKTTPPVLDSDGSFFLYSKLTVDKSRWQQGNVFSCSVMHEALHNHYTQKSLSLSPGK

B1: ADC2 (control drug) (antibody, human IgG1, kappa, V domains shown)
VH: EVQLVQSGAEVKKSGESLKISCKASGYTFTDYDINWVRQMPGKGLEWIGWIFPGDDTTKYNEKFKGQVTLSADKSTNTAYMQWSSLKASDTAMYYCARSPSFDYWGQGTLVTVSS
VL: QIVLTQSPGTLSLSPGERATLSCSASSTIGFMYWYQQKPGQAPRRWIYDTSKLASGVPDRFSGSGSGTDYTLTISRLEPEDFAVYYCHQRSSYPTFGQGTKVEIKR
modifications: MC-GGFG-DXD (Deruxtecan) conjugated after TCEP reduction; DAR (p) 3.7 for the whole antibody; sites not stated
Turning to B1, the “IC50 (nM), in-vitro cytotoxicity, CCK8” value in experiment [1] was determined as 0.77 nM; in experiment [2], 68.8 nM.

B2: Antibody V3 (antibody, human IgG1, kappa, V domains shown)
VH: EVQLVQSGAEVKKSGESLKISCKASGYTFTDYDINWVRQMPGKGLEWIGWIFPGDDTTKYNEKFKGQVTLSADKSTNTAYMQWSSLKASDTAMYYCARSPSFDYWGQGTLVTVSS
VL: QIVLTQSPGTLSLSPGERATLSCSASSTIGFMYWYQQKPGQAPRRWIYDTSKLASGVPDRFSGSGSGTDYTLTISRLEPEDFAVYYCHQRSSYPTFGQGTKVEIKR
notes: Humanized from chimeric antibody M1; also called humanized antibody V3
On to B2, for which the binding result is “no binding (tested: 100 nM)” in experiment [3], “no binding (tested: 100 nM)” in experiment [4], “no binding (tested: 100 nM)” in experiment [5] and “no binding (tested: initial concentration of 2 µg/mL)” in experiment [9]. The “% of cells in gate V1-R at 0.411 nM” value in experiment [6] was 36.8%. For the same molecule, the “% of cells in gate V1-R at 1.23 nM” value in [6] worked out at 86.4%. For the same molecule, the “% of cells in gate V1-R at 3.7 nM” value in [6] worked out at 94%. Also, the “% of cells in gate V1-R at 11.11 nM” value in experiment [6] was found to be 97.2%. Further, the “% of cells in gate V1-R at 33.33 nM” value in [6] stood at 98.9%. For the same molecule, in experiment [6], the “% of cells in gate V1-R at 100 nM” value was determined as 99.6%. Further, the EC50 came to 0.042 µg/mL in [7], 0.042 µg/mL in experiment [8] and 1.77 nM in experiment [15]. The same molecule returned a dissociation rate constant (koff) in experiment [10] of 0.000155 s⁻¹. The same molecule displayed a kon in [10] of 886000 M⁻¹ s⁻¹. Also, the “% of cells in gate P3 at 100 nM” value in experiment [11] came to 0.6%; in experiment [12], 0.4%; in [13], 0.7%. In addition, the affinity in [14], expressed as Kd, was 0.175 nM.

B3: control Antibody M30-H1-L4 (antibody, human IgG1, kappa, V domains shown)
VH: QVQLVQSGAEVKKPGSSVKVSCKASGYTFTNYVMHWVRQAPGQGLEWMGYINPYNDDVKYNEKFKGRVTITADESTSTAYMELSSLRSEDTAVYYCARWGYYGSPLYYFDYWGQGTLVTVSS
VL: EIVLTQSPATLSLSPGERATLSCRASSRLIYMHWYQQKPGQAPRPLIYATSNLASGIPARFSGSGSGTDFTLTISSLEPEDFAVYYCQQWNSNPPTFGQGTKVEIKR
notes: Control anti-B7-H3 antibody
Regarding B3, in [6], the “% of cells in gate V1-R at 0.411 nM” value was 1.1%, the “% of cells in gate V1-R at 1.23 nM” value is 4%, the “% of cells in gate V1-R at 3.7 nM” value was 38.4% and the “% of cells in gate V1-R at 11.11 nM” value came to 97.2%. Moreover, in [6], the “% of cells in gate V1-R at 33.33 nM” value turned out to be 98.8% and the “% of cells in gate V1-R at 100 nM” value was determined as 99.3%. Moreover, the binding result in [16] was “no binding (tested: 100 nM)”. Moreover, in [17], the binding result was “no binding (tested: 100 nM)”. Besides, in experiment [18], the binding result is “no binding (tested: 100 nM)”. In addition, in experiment [19], the Kd stood at 0.986 nM, the koff came to 0.00024 s⁻¹ and the kon was 244000 M⁻¹ s⁻¹. In experiment [20], this molecule yielded an EC50 of 8.54 nM. In addition, the EC50 in experiment [15] worked out at 3.73 nM.

These data come from patent publication US20250262316A1 (BIO THERA SOLUTIONS, published 2025).
